Laboratory results reported in the supplement of paper PMC9170038.

Tested on: MS2 coat protein
Test: apparent KD of MS2 coat protein; designed switch direction (-1 OFF switch, 1 ON switch): -1; higher = weaker reporter binding
In short: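 Designed RNA switches sharing common flanks were transcribed on Illumina chips by stalled E. coli RNA polymerase. They were titrated with SNAP-549-labelled MS2 coat protein, from 0.7 or 1.5 nM doubling to 3 µM, in Tris-HCl pH 7.5 buffer with KCl, MgCl2, BSA, DTT, tRNA and Tween-20. Titrations ran without input, with 200 uM small-molecule ligand, or with an oligonucleotide input. The apparent KD of each design is the median over its clusters, after curve-fitting of normalised cluster fluorescence.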

[1] = Eterna round: R95, input ligand: FMN 200 uM
[2] = Eterna round: R95, input ligand: microRNA oligo, concentration not stated
[3] = Eterna round: R95, input ligand: none
[4] = input ligand: microRNA oligo, concentration not stated

## GACUUCUCUGAGGAUAUUGCAUCAUACGAUAAAUAAGAAGGCAGAACAUGAGGAUCACCCAUGUGGGUUUUAAG [Bingo-Bango-33] (Eterna round: R97, puzzle: Exclusion 6)
Input ligand: FMN 200 uM
  apparent KD of MS2 coat protein: 137 nM
Input ligand: none
  apparent KD of MS2 coat protein: 104 nM

## GACUUGUCAGGAUAUCUUACAUUUGCAUCGUAGUUACCGUUGGAGAAGGGACAUGAGGAUCACCCAUGUUUGGC [tap-tap-tappy24] (Eterna round: R97, puzzle: Exclusion 4)
Input ligand: FMN 200 uM
  apparent KD of MS2 coat protein: 26.6 nM
Input ligand: none
  apparent KD of MS2 coat protein: 28.9 nM

## GAGAAACAUGAGGAUCACCCAUGUGAGGAUAUGAGCACGCCGGUGACGGUGAUAAGAAUCAGAAGGCACAAAGG [Mat - Exclusion 1 - JL Mod - D33] (Eterna round: R97, puzzle: Exclusion 1)
Input ligand: FMN 200 uM
  apparent KD of MS2 coat protein: 422 nM
Input ligand: none
  apparent KD of MS2 coat protein: 67.6 nM

## GAGAAACAUGAGGAUCACCCAUGUGAGGAUAUGAGCACGCCGGUGACGGUGAUAAGAAUCAGAAGGCACAUUAA [Mat - Exclusion 1 - JL Mod - D34] (Eterna round: R97, puzzle: Exclusion 1)
Input ligand: FMN 200 uM
  apparent KD of MS2 coat protein: 95.7 nM
Input ligand: none
  apparent KD of MS2 coat protein: 38.8 nM

## GAGAAACAUGAGGAUCACCCAUGUGAGGAUAUGCGUACGUUGUCCGUAGGCGACGUGCGCAGAAGGCGCAAAAG [Mat - Mod of JL D87] (puzzle: Exclusion 1)
[1]
  apparent KD of MS2 coat protein: 59 nM
[2]
  apparent KD of MS2 coat protein: 53.5 nM
[3]
  apparent KD of MS2 coat protein: 96 nM

## GAGAAACAUGAGGAUCACCCAUGUGAGGAUAUGCGUACGUUGUCCGUAGGCGACGUGCGCAGAAGGCGCAAAGG [Mat - Mod of JL D86] (puzzle: Exclusion 1)
[2]
  apparent KD of MS2 coat protein: 54.2 nM

## GAGAAAUUAUAGGAUAUCGUAAGGAUAAUUUAACGAGAAGGAUGAACAUGAGGAUCACCCAUGUGGUAUCAUGG [JL-ex6-3.12] (puzzle: Exclusion 6)
[1]
  apparent KD of MS2 coat protein: 191 nM
[2]
  apparent KD of MS2 coat protein: 184 nM
[3]
  apparent KD of MS2 coat protein: 465 nM

## GAGAACGUAGGAUAUACAUGAGGAUCACCCAUGUGAGGAAGGAGUAGGAAGCGUGGAAGUAGAAGGACGGAGAG [JR_Exclu3_Sub073] (puzzle: Exclusion 3)
[1]
  apparent KD of MS2 coat protein: 57.6 nM
[2]
  apparent KD of MS2 coat protein: 40.6 nM
[3]
  apparent KD of MS2 coat protein: 24.5 nM

## GAGAAGGUAGGAUAUACGAAUAAAUAGGGUAGUAAGAAGACACAUGAGGAUCACCCAUGUAGAAGGACCAAGAG [Mat - Exclusion 2 - Mod of my Tesla design - D37] (puzzle: Exclusion 2)
[1]
  apparent KD of MS2 coat protein: 34.6 nM
[2]
  apparent KD of MS2 coat protein: 19.2 nM
[3]
  apparent KD of MS2 coat protein: 21.8 nM

## GAGAAGUGAGGAUAUGCGGUAAGGAUGAAAGGAAGGAAUGAGUAGAAGGCACAUGAGGAUCACCCAUGUAGAGU [JR_Exclu4_Sub081] (puzzle: Exclusion 4)
[1]
  apparent KD of MS2 coat protein: 19.5 nM
[2]
  apparent KD of MS2 coat protein: 18.5 nM
[3]
  apparent KD of MS2 coat protein: 21.1 nM

## GAGAUGUGAGGAUAUCUAGACCAUGGAAAAGCCACGGUCCGAGAGAAGGCACAUGAGGAUCACCCAUGUGAUGA [Quedte] (puzzle: Exclusion 4)
[2]
  apparent KD of MS2 coat protein: 43.7 nM

## GAGAUGUGAGGAUAUCUAGACCGCGGCAGAGCUGCGGUCCGAGAGAAGGCACAUGAGGAUCACCCAUGUGAUGA [Beriesan] (puzzle: Exclusion 4)
[2]
  apparent KD of MS2 coat protein: 47.3 nM

## GAGCACUGCCGAGGAUAUCCACAUGAGGAUCACCCAUGUAGUGAAAAGUCCCAGUAGAACCAAAUGGAGAAGGUGGCAAGAUAU [Eternabot solution 21] (Eterna round: R96, puzzle: Exclusion NG 2)
Input ligand: FMN 200 uM
  apparent KD of MS2 coat protein: 23.2 nM
[4]
  apparent KD of MS2 coat protein: 20 nM
Input ligand: none
  apparent KD of MS2 coat protein: 17.9 nM

## GAGCCAUCGUGAGAUGGCUCAAUUACAUGAGGAUCACCCAUGUAGGAUAUCGAUUGCUUUGCAGUCGAGAAGGACAUGUUUAAU [JL ENG3 3.00] (Eterna round: R96, puzzle: Exclusion NG 3)
Input ligand: FMN 200 uM
  apparent KD of MS2 coat protein: 67.4 nM
[4]
  apparent KD of MS2 coat protein: 25.8 nM
Input ligand: none
  apparent KD of MS2 coat protein: 30.3 nM

## GAGCUAUGAGGAUAUGCAUAGAUACGGAUUCGUGUAGUACUACAUGAGGAUCACCCAUGUAGAAGGCGUGGCUG [JL-ex2-2.02 mat747 mod] (puzzle: Exclusion 2)
[2]
  apparent KD of MS2 coat protein: 15.4 nM

## GAGCUAUGAGGAUAUGCAUAUAUACGGAUUCGUGUAGUACUACAUGAGGAUCACCCAUGUAGAAGGCGUGGCUG [JL-ex2-2.03 mat747 mod] (puzzle: Exclusion 2)
[2]
  apparent KD of MS2 coat protein: 13.2 nM

## GAGCUAUGAGGAUAUGCAUAUAUACGGAUUCGUGUGGUACUACAUGAGGAUCACCCAUGUAGAAGGCGUGGCUG [JL-ex2-2.04 mat747 mod] (puzzle: Exclusion 2)
[2]
  apparent KD of MS2 coat protein: 16.2 nM

## GAGGAACAUGAGGAUCACCCAUGUAAGGAUAUGCAAAGAGAGAAAGAAGAAGGAGAAAGCAGAAGGUACAAGGA [JR_Exclu1_Sub073] (puzzle: Exclusion 1)
[1]
  apparent KD of MS2 coat protein: 42.7 nM
[2]
  apparent KD of MS2 coat protein: 35.1 nM
[3]
  apparent KD of MS2 coat protein: 54.2 nM

## GAGGAACAUGAGGAUCACCCAUGUAAGGAUAUGCAAAGAGAGGUAGUAGAAGGAGAAGGCAGAAGGUACAAGGA [JR_Exclu1_Sub074] (puzzle: Exclusion 1)
[1]
  apparent KD of MS2 coat protein: 47.7 nM
[2]
  apparent KD of MS2 coat protein: 36.1 nM
[3]
  apparent KD of MS2 coat protein: 50 nM

## GAGGACUUAGGAUAUACAUGAGGAUCACCCAUGUCCCUAAGCAUGCGACAGCCCUCGAGUAGAAGGGAGGACCA [Eternabot (Original) Solution 3] (Eterna round: R97, puzzle: Exclusion 3)
Input ligand: FMN 200 uM
  apparent KD of MS2 coat protein: 14.8 nM
Input ligand: none
  apparent KD of MS2 coat protein: 14.7 nM

## GAGGAGCAAGGAUAUACGAGGAUAUGGUAGUUUGUAGAGUGACAUGAGGAUCACCCAUGUAGAAGGUGCGAGGG [JR_Exclu2_Sub099] (puzzle: Exclusion 2)
[2]
  apparent KD of MS2 coat protein: 41.7 nM

## GAGGCAUGCCGAGGUCCACACAUGAGGAUCACCCAUGUCAUGACAGGCUUUUUACUCGUUUUAUCGCUAUCGCGUUC [Vebizaledi] (puzzle: Sensor v3, turn-off variant 1)
[1]
  apparent KD of MS2 coat protein: 84.8 nM
[2]
  apparent KD of MS2 coat protein: 159 nM
[3]
  apparent KD of MS2 coat protein: 70.7 nM

## GAGUACAGAGGAUAUACAUGAGGAUCACCCAUGUGUUUCAGCUAGGAGACUAGCGAAAGUAGAAGGCUGUACUU [salish99_ex3_r4_005] (Eterna round: R97, puzzle: Exclusion 3)
Input ligand: FMN 200 uM
  apparent KD of MS2 coat protein: 25.7 nM
Input ligand: none
  apparent KD of MS2 coat protein: 8.49 nM

## GAGUACUGAGGAUAUACAUGAGGAUCACCCAUGUGUUCCAACUAGGAAUCUAGAAUGUGUAGAAGGCAGUGCUG [salish99_ex3_r4_703] (Eterna round: R97, puzzle: Exclusion 3)
Input ligand: FMN 200 uM
  apparent KD of MS2 coat protein: 298 nM
Input ligand: none
  apparent KD of MS2 coat protein: 262 nM

## GAGUAGGGAGGAUAUACGUGCUCAAUCCCGGAAAGCGGGAAACAUGAGGAUCACCCAUGUAGAAGGCCCAUAAA [Riisen] (puzzle: Exclusion 2)
[2]
  apparent KD of MS2 coat protein: 68.4 nM

## GAGUAGUAAGGAUAUGUCUCUGGUGGCUUCGGUCACUAGAGGCAGAAGGUACAUGAGGAUCACCCAUGUUCCUC [ExDelusion 7 - Jieux - Exclusion 4] (Eterna round: R97, puzzle: Exclusion 4)
Input ligand: FMN 200 uM
  apparent KD of MS2 coat protein: 220 nM
Input ligand: none
  apparent KD of MS2 coat protein: 55.2 nM

## GAGUGACAUGAGGAUCACCCAUGUAAGGAUAUACGGUUGGUAGAGAGAGGGAAAAGAGGUAGAAGGUACGAAGG [JR_Exclu1_Sub056] (puzzle: Exclusion 1)
[1]
  apparent KD of MS2 coat protein: 43.9 nM
[2]
  apparent KD of MS2 coat protein: 56 nM
[3]
  apparent KD of MS2 coat protein: 76.2 nM
